# US12480163
# Target: p53 (tumor protein 53, TP53)
protein,measurement,value
Wip1 (wild-type p53-induced phosphatase 1; encoded by the PPM1D gene) (protein) MAGLYSLGVSVFSDQGGRKYMEDVTQIVVEPEPTAEEKPSPRRSLSQPLPPRPSPAALPGGEVSGKGPAVAAREARDPLPDAGASPAPSRCCRRRSSVAFFAVCDGHGGREAAQFAREHLWGFIKKQKGFTSSEPAKVCAAIRKGFLACHLAMWKKLAEWPKTMTGLPSTSGTTASVVIIRGMKMYVAHVGDSGVVLGIQDDPKDDFVRAVEVTQDHKPELPKERERIEGLGGSVMNKSGVNRVVWKRPRLTHNGPVRRSTVIDQIPFLAVARALGDLWSYDFFSGEFVVSPEPDTSVHTLDPQKHKYIILGSDGLWNMIPPQDAISMCQDQEEKKYLMGEHGQSCAKMLVNRALGRWRQRMLRADNTSAIVICISPEVDNQGNFTNEDELYLNLTDSPSYNSQETCVMTPSPCSTPPVKSLEEDPWPRVNSKDHIPALVRSNAFSENFLEVSAEIARENVQGVVIPSKDPEPLEENCAKALTLRIHDSLNNSLPIGLVPTNSTNTVMDQKNLKMSTPGQMKAQEIERTPPTNFKRTLEESNSGPLMKKHRRNGLSRSSGAQPASLPTTSQRKNSVKLTMRRRLRGQKKIGNPLLHQHRKTVCVC,phospho-Serine15-p53 protein levels (Western blot) after combined ATSP-7041 and GSK2830371 treatment,the combination of ATSP-7041 and GSK2830371 increased the phosphorylation of p53 at Serine 15 in two Ewing sarcoma cell lines
same,phosphorylation of Serine 15 of p53 (Western blot) after GSK2830371 treatment,GSK2830371 reduced the protein levels of Wip1 in a time-dependent manner and triggered a surge in phosphorylation of Serine 15 of p53
